{"source": "patent US20200283521A1", "about": "(GRANULAR THERAPEUTICS, published 2020)", "key": {"hVCAM-1": {"target": "T1, hVCAM-1 (human, UniProt P19320)", "T1 construct": "purified recombinant protein; member of the panel m9", "T1 sequence (looked up)": "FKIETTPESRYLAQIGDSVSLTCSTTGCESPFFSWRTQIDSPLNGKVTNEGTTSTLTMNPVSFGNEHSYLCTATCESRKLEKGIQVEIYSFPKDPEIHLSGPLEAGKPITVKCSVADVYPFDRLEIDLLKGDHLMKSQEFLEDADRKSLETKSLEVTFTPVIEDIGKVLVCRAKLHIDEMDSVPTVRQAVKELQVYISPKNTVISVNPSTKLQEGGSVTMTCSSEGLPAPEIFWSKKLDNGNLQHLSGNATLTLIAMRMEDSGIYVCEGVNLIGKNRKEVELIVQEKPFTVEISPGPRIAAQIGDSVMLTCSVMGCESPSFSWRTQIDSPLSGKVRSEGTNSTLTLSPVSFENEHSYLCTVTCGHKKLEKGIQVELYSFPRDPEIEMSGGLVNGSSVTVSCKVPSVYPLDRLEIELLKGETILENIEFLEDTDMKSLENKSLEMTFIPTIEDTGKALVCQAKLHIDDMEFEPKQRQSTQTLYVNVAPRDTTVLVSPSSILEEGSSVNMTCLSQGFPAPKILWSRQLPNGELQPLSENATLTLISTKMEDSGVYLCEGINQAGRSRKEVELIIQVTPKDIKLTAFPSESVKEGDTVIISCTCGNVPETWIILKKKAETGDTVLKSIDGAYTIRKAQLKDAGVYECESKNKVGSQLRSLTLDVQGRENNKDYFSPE", "experiment": "direct ELISA on coated protein, IgG1"}, "hEpCAM-Fc": {"target": "T2, hEpCAM-Fc (human, UniProt P16422)", "T2 construct": "Fc fusion; member of the panel m9", "T2 sequence (looked up)": "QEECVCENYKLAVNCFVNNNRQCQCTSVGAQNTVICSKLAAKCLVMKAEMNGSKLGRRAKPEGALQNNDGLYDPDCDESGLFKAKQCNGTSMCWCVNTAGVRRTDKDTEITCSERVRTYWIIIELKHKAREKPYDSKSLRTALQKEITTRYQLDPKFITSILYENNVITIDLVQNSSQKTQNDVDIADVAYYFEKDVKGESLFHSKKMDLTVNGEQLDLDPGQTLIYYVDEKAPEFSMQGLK", "experiment": "direct ELISA on coated protein, IgG1"}, "h4-1BB-Fc": {"target": "T3, h4-1BB-Fc", "T3 construct": "member of the panel m9", "T3 sequence (chain, as listed by the source limits assumed)": "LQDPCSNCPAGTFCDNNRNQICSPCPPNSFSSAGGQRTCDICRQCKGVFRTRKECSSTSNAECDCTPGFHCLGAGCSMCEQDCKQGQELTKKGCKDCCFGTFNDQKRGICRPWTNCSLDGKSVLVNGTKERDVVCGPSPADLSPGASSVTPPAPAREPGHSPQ", "experiment": "direct ELISA on coated protein, IgG1"}, "hTWEAK-Fc": {"target": "T4, hTWEAK-Fc (human, UniProt O43508)", "T4 construct": "Fc fusion; member of the panel m9", "T4 sequence (looked up)": "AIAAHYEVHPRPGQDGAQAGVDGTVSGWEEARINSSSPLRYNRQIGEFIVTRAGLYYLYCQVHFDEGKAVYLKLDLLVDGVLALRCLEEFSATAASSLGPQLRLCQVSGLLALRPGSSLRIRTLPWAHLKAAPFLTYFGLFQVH", "experiment": "direct ELISA on coated protein, IgG1"}, "hOX40-Fc": {"target": "T5, hOX40-Fc", "T5 construct": "member of the panel m9", "T5 chain": "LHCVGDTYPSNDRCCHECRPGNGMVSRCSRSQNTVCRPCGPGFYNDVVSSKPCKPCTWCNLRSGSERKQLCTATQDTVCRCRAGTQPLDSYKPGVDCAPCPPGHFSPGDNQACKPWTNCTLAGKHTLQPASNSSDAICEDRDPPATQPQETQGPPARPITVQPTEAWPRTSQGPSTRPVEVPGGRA", "experiment": "direct ELISA on coated protein, IgG1"}, "KRT19": {"target": "T6, KRT19 (human, UniProt P08727)", "T6 construct": "expressed in transfected HEK293 cells", "T6 sequence (looked up)": "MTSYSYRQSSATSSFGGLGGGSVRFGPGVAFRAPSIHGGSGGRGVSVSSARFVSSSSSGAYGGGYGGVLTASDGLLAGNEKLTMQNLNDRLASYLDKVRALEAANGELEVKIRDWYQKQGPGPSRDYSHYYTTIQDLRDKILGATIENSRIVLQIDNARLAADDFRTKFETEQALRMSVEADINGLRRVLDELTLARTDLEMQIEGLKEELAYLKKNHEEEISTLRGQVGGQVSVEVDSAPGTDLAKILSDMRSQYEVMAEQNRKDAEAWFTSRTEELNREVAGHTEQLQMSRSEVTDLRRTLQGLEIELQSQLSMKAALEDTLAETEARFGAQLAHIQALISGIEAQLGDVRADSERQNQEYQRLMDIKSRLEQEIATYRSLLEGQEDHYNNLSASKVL", "experiment": "cell array, transfected fixed HEK293 cells", "description": "(§1) Transfection of all plasmids was confirmed by screening for the co-encoded marker ZS green (FIG. 13A).\n(§2) Primary hits (duplicate spots) were identified by analysing fluorescence (AF647 and ZsGreenl) on ImageQuant. Vectors encoding all hits were sequenced to confirm their correct identities. […] Slides were analysed as above."}, "BAIAP2L2": {"target": "T7, BAIAP2L2 (human, UniProt Q6UXY1)", "T7 construct": "expressed in transfected HEK293 cells", "T7 sequence (looked up)": "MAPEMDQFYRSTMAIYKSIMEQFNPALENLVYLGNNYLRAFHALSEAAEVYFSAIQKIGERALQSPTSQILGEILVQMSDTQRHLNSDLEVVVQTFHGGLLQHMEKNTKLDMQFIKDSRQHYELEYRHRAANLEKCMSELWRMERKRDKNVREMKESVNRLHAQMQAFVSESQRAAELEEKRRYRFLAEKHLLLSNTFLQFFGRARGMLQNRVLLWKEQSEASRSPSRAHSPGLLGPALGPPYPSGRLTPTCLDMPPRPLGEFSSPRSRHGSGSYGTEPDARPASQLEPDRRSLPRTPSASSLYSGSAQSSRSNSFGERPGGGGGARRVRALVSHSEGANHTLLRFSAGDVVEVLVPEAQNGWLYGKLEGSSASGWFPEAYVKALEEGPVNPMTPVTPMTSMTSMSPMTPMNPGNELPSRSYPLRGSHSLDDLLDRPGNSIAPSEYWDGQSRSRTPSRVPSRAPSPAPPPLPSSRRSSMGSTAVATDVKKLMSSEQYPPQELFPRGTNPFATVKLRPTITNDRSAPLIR", "experiment": "cell array, transfected fixed HEK293 cells", "description": "as §1, §2"}, "DES": {"target": "T8, DES (human, UniProt P17661)", "T8 construct": "expressed in transfected HEK293 cells", "T8 sequence (P17661 2-470 limits assumed)": "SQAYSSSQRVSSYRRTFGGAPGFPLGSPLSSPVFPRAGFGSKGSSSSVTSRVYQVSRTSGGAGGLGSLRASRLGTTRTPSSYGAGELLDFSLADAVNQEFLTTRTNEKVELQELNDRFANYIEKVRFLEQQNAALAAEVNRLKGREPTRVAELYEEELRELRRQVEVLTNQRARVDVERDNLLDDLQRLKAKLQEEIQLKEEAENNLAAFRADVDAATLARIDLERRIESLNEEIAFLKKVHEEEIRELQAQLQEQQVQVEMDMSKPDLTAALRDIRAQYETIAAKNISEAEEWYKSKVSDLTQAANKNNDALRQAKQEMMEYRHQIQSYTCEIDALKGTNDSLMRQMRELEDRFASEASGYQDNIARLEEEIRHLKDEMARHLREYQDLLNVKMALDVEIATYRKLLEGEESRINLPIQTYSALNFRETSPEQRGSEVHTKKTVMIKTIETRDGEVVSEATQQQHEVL", "experiment": "cell array, transfected fixed HEK293 cells", "description": "as §1, §2"}, "ZG16B": {"target": "T9, ZG16B (human, UniProt Q96DA0)", "T9 construct": "expressed in transfected HEK293 cells", "T9 sequence (looked up)": "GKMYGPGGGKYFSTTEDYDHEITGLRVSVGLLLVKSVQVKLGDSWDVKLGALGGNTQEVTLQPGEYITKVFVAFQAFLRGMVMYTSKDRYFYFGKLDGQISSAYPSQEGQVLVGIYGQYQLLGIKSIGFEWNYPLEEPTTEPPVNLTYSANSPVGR", "experiment": "cell array, transfected fixed HEK293 cells", "description": "as §1, §2"}}, "data": [{"binder": "MH5, human IgG1 (antibody, V domains shown, IgG1; also called C-KIT-MH5; C-KIT-MHS) VH: QVQLVQSGAEVKKPGASVKVSCKASGYTFTDYYMNWVRQAPGQGLEWMGRIYPGSGNTYYAQKFQGRVTMTRDTSTSTVYMELSSLRSEDTAVYYCARGVYYYDYWGQGTLVTVSS VL: DIQMTQSPSSLSASVGDRVTITCRASQGIRTNLAWFQQKPGKAPKSLIYSASSLQSGVPSRFSGSGSGTDFTLTISSLQPEDFATYYCQQYANYPRTFGGGTKVEIK", "values": [{"measurement": "binding result", "setting": "hVCAM-1", "result": "no binding (tested: 1 µg/ml)"}, {"measurement": "binding result", "setting": "hEpCAM-Fc", "result": "no binding (tested: 1 µg/ml)"}, {"measurement": "binding result", "setting": "h4-1BB-Fc", "result": "no binding (tested: 1 µg/ml)"}, {"measurement": "binding result", "setting": "hTWEAK-Fc", "result": "no binding (tested: 1 µg/ml)"}, {"measurement": "binding result", "setting": "hOX40-Fc", "result": "no binding (tested: 1 µg/ml)"}]}, {"binder": "humanized h37M, human IgG1 (antibody, V domains shown, human IgG1; terbium-labelled as the tracer of the HTRF assays; also called C-KIT-h37M; h37M-IgG1) VH: QVQLVQSGAEVKKPGASVKLSCKASGYTFTDYYINWVRQAPGKGLEWIARIYPGSGNTYYNEKFKGRATLTADKSTSTAYMQLSSLRSEDTAVYFCARGVYYFDYWGQGTTVTVSS VL: DIVMTQSPSSLSASVGDRVTITCKASQNVRTNVAWYQQKPGKAPKALIYSASYRYSGVPDRFTGSGSGTDFTLTISSLQPEDFADYFCQQYNSYPRTFGGGTKVEIK", "values": [{"measurement": "binding result", "setting": "KRT19", "result": "no binding (tested: 2 µg/ml)"}, {"measurement": "binding result", "setting": "BAIAP2L2", "result": "no binding (tested: 2 µg/ml)"}, {"measurement": "binding result", "setting": "DES", "result": "no binding (tested: 2 µg/ml)"}, {"measurement": "binding result", "setting": "ZG16B", "result": "no binding (tested: 2 µg/ml)"}]}]}
